Measured values from paper PMC10850787.

Assays:
[1] = target: PaFtsH1-6xHis (FtsH1 of Pseudomonas aeruginosa SG17M clone C) (Pseudomonas aeruginosa SG17M); test: negative-stain electron microscopy; detergent-solubilised enzyme at 0.4 mg/ml in storage buffer with 0.1% Igepal, 2% uranyl acetate; 3D reconstruction with C6 symmetry, about 22 A
[2] = target: PaFtsH1-6xHis (FtsH1 of Pseudomonas aeruginosa SG17M clone C) (Pseudomonas aeruginosa SG17M); test: SEC; analytical Superdex 200 (increase) 3.2/3.0 gel filtration column in Buffer PD (50 mM Tris-HCl pH 8.0, 80 mM NaCl, 10% glycerol, 2 mM beta-mercaptoethanol, 0.1% NP-40); native mass from molecular weight standards; hexamer plus NP-40 micelles
[3] = target: PaFtsH2-6xHis (FtsH2 of Pseudomonas aeruginosa SG17M clone C, tLST genomic island) (Pseudomonas aeruginosa SG17M); test: negative-stain electron microscopy; detergent-solubilised enzyme at 0.4 mg/ml in storage buffer with 0.1% Igepal, 2% uranyl acetate; 3D reconstruction with C6 symmetry, about 22 A
[4] = target: PaFtsH2-6xHis (FtsH2 of Pseudomonas aeruginosa SG17M clone C, tLST genomic island) (Pseudomonas aeruginosa SG17M); test: SEC; analytical Superdex 200 (increase) 3.2/3.0 gel filtration column in Buffer PD (50 mM Tris-HCl pH 8.0, 80 mM NaCl, 10% glycerol, 2 mM beta-mercaptoethanol, 0.1% NP-40); native mass from molecular weight standards; hexamer plus NP-40 micelles

Row | stoichiometry N [1] | stoichiometry N [2] | stoichiometry N [3] | stoichiometry N [4] | Substance
1 | 6 | 6 | – | – | PaFtsH1-6xHis (FtsH1 of Pseudomonas aeruginosa SG17M clone C) (enzyme)
2 | – | – | 6 | 6 | PaFtsH2-6xHis (FtsH2 of Pseudomonas aeruginosa SG17M clone C, tLST genomic island) (enzyme)
